Reference: ChEMBL document CHEMBL4433268, “Rational design of a SHP-2 targeted, fluorogenic peptide substrate” (Bioorg Med Chem Lett, 2019)

Key:
Conditions in all cases: Homo sapiens
[1] = substrate: CC[C@H](C)[C@H](NC(=O)[C@@H](NC(=O)[C@@H]1CCCN1C(=O)[C@H](CC(=O)O)NC(C)=O)[C@@H](C)O)C(=O)N[C@@H](Cc1cc(=O)oc2cc(OP(=O)(O)O)ccc12)C(=O)N1CCC[C@H]1C(=O)N[C@H](C(=O)N[C@@H](CC(C)C)C(=O)N[C@@H](CC(=O)O)C(N)=O)C(C)C
Description: (§1) Substrate activity at SHP2 (unknown origin) expressed in Escherichia coli BL21 (DE3) assessed as Kcat incubated for 60 mins by fluorescence based assay

[2] = substrate: CC[C@H](C)[C@H](NC(=O)[C@@H](NC(=O)[C@H](CC(=O)O)NC(=O)[C@H](CC(=O)O)NC(C)=O)[C@@H](C)O)C(=O)N[C@@H](Cc1cc(=O)oc2cc(OP(=O)(O)O)ccc12)C(=O)N[C@@H](CC(=O)O)C(=O)N[C@H](C(=O)N[C@@H](CC(C)C)C(=O)N[C@@H](CC(=O)O)C(N)=O)C(C)C
Description: as §1

[3] = substrate: CC[C@H](C)[C@H](NC(=O)[C@@H](NC(=O)[C@@H]1CCCN1C(=O)[C@H](CC(=O)O)NC(C)=O)[C@@H](C)O)C(=O)N[C@@H](Cc1cc(=O)oc2cc(OP(=O)(O)O)ccc12)C(=O)N1CCC[C@H]1C(=O)N[C@H](C(=O)N[C@@H](CC(C)C)C(=O)N[C@@H](CC(=O)O)C(N)=O)C(C)C; remark: listed apart in the source
Description: (§2) Substrate activity at SHP2 (unknown origin) expressed in Escherichia coli BL21 (DE3) assessed as Kcat/Km ratio incubated for 60 mins by fluorescence based assay

[4] = substrate: CC[C@H](C)[C@H](NC(=O)[C@@H](NC(=O)[C@H](CC(=O)O)NC(=O)[C@H](CC(=O)O)NC(C)=O)[C@@H](C)O)C(=O)N[C@@H](Cc1cc(=O)oc2cc(OP(=O)(O)O)ccc12)C(=O)N[C@@H](CC(=O)O)C(=O)N[C@H](C(=O)N[C@@H](CC(C)C)C(=O)N[C@@H](CC(=O)O)C(N)=O)C(C)C; remark: listed apart in the source
Description: as §2

[5] = substrate: CC[C@H](C)[C@H](NC(=O)[C@@H](NC(=O)[C@@H]1CCCN1C(=O)[C@H](CC(=O)O)NC(C)=O)[C@@H](C)O)C(=O)N[C@@H](Cc1cc(=O)oc2cc(OP(=O)(O)O)ccc12)C(=O)N1CCC[C@H]1C(=O)N[C@H](C(=O)N[C@@H](CC(C)C)C(=O)N[C@@H](CC(=O)O)C(N)=O)C(C)C; remark: listed apart in the source
Description: (§3) Substrate activity at SHP2 (unknown origin) expressed in Escherichia coli BL21 (DE3) assessed as Km incubated for 60 mins by fluorescence based assay

[6] = substrate: CC[C@H](C)[C@H](NC(=O)[C@@H](NC(=O)[C@H](CC(=O)O)NC(=O)[C@H](CC(=O)O)NC(C)=O)[C@@H](C)O)C(=O)N[C@@H](Cc1cc(=O)oc2cc(OP(=O)(O)O)ccc12)C(=O)N[C@@H](CC(=O)O)C(=O)N[C@H](C(=O)N[C@@H](CC(C)C)C(=O)N[C@@H](CC(=O)O)C(N)=O)C(C)C; remark: listed apart in the source
Description: as §3

B1: Tyrosine-protein phosphatase non-receptor type 11 (Homo sapiens), Q06124 (protein)
chain: MTSRRWFHPNITGVEAENLLLTRGVDGSFLARPSKSNPGDFTLSVRRNGAVTHIKIQNTGDYYDLYGGEKFATLAELVQYYMEHHGQLKEKNGDVIELKYPLNCADPTSERWFHGHLSGKEAEKLLTEKGKHGSFLVRESQSHPGDFVLSVRTGDDKGESNDGKSKVTHVMIRCQELKYDVGGGERFDSLTDLVEHYKKNPMVETLGTVLQLKQPLNTTRINAAEIESRVRELSKLAETTDKVKQGFWEEFETLQQQECKLLYSRKEGQRQENKNKNRYKNILPFDHTRVVLHDGDPNEPVSDYINANIIMPEFETKCNNSKPKKSYIATQGCLQNTVNDFWRMVFQENSRVIVMTTKEVERGKSKCVKYWPDEYALKEYGVMRVRNVKESAAHDYTLRELKLSKVGQGNTERTVWQYHFRTWPDHGVPSDPGGVLDFLEEVHHKQESIMDAGPVVVHCSAGIGRTGTFIVIDILIDIIREKGVDCDIDVPKTIQMVRSQRSGMVQTEAQYRFIYMAVQHYIETLQRRIEEEQKSKRKGHEYTNIKYSLADQTSGDQSPLPPCTPTPPCAEMREDSARVYENVGLMQQQKSFR
B1 was tested, and the kcat [1] was 0.0045 s⁻¹, the kcat [2] was 0.059 s⁻¹ and the kcat/Km [3] was 6 to 6.4 M⁻¹ s⁻¹. It also gave a kcat/Km [4] of 270 M⁻¹ s⁻¹, a Km [5] of 700 µM and a Km [6] of 220 µM.
